The assay has as its target T1, recombinant human TIGIT (human, UniProt Q495A1 22-141, limits assumed).
T1 construct: recombinant human TIGIT used in Carterra SPR; also called hTIGIT
T1 sequence (looked up): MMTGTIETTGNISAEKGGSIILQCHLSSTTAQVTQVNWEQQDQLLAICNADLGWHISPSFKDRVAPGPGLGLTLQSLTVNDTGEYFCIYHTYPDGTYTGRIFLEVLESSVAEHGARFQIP
The assay can be described thus: SPR Carterra, average. On the procedure:
Binding affinities of VHH-Fc proteins to recombinant human TIGIT were measured by SPR using a Carterra instrument (Table 10A). […] Average values reported from measurements from 1-2 samples.

What is called Kd is the equilibrium constant for the complex coming apart. The koff is a measure of how fast the partners let go of each other. For orientation: kon means the second-order rate constant of association.

B1: TIGIT-SC214 (Fc fusion)
VHH: EVQLVESGGGLVQPGGSLRLSCAASGFTFGDSWMGWFRQAPGKEHEFVAAIWRSGTLKAYADSVKGRFTISADNSKNTAYLQMNSLKPEDTAVYYCTSYDAVAGTRDFWGQGTLVTVSS
notes: VHH-Fc fusion in assay
Turning to B1, the Kd is 6.13 nM, the koff was determined as 0.0248 s⁻¹ and the kon is 4.05e+06 M⁻¹ s⁻¹.

B2: TIGIT-SC92 (Fc fusion)
VHH: EVQLVESGGGLVQPGGSLRLSCAASGSTIENYAMGWFRQAPGKEREFVAAIDWSGGSTYYADSVKGRFTISADNSKNTAYLQMNSLKPEDTAVYYCARWRSIWSGYDDYYYMDVWGQGTLVTVSS
notes: VHH-Fc fusion in assay
Turning to B2, the Kd was determined as 105 nM, the koff worked out at 0.00289 s⁻¹ and the kon was 27500 M⁻¹ s⁻¹.

B3: TIGIT-SC93 (Fc fusion)
VHH: EVQLVESGGGLVQPGGSLRLSCAASSRTVSSHAMGWFRQAPGKEREFVAAISWSGVTTYYADSVKGRFTISADNSKNTAYLQMNSLKPEDTAVYYCARWRSIWSGYDDYYYMDVWGQGTLVTVSS
notes: VHH-Fc fusion in assay
In the case of B3, the Kd turned out to be 49.9 nM, the koff was 0.00407 s⁻¹ and the kon is 81500 M⁻¹ s⁻¹.

B4: TIGIT-SC91 (Fc fusion)
VHH: EVQLVESGGGLVQPGGSLRLSCAASGFTFSNYAMGWFRQAPGKEREFVAAINWNSRSTYYADSVKGRFTISADNSKNTAYLQMNSLKPEDTAVYYCARWRSIWSGYDDYYYMDVWGQGTLVTVSS
notes: VHH-Fc fusion in assay
As for B4, the Kd was found to be 5.42 nM, the koff came to 0.0071 s⁻¹ and the kon came to 1.31e+06 M⁻¹ s⁻¹.

B5: TIGIT-SC4 (Fc fusion)
VHH: EVQLVESGGGLVQPGGSLRLSCAASGSIDRINAMGWFRQATGKEREWVASVLRGGYTWYADSVKGRFTISADNSKNTAYLQMNSLKPEDTAVYYCARDSYSTSFWFDPWGQGTLVTVSS
notes: VHH-Fc fusion in assay
B5: the Kd amounted to 6.24 nM, the koff is 0.00222 s⁻¹ and the kon stood at 356000 M⁻¹ s⁻¹.

B6: TIGIT-SC195 (Fc fusion)
VHH: EVQLVESGGGLVQPGGSLRLSCAASGFAFSSDWMGWFRQAPGKEREWVASVLRGGYTWYADSVKGRFTISADNSKNTAYLQMNSLKPEDTAVYYCARGEGFDYWGQGTLVTVSS
Regarding B6, the Kd was found to be 478 nM, the koff amounted to 0.142 s⁻¹ and the kon was found to be 296000 M⁻¹ s⁻¹.

B7: TIGIT-SC200 (Fc fusion)
VHH: EVQLVESGGGLVQPGGSLRLSCAASGNTFSGGFMGWFRQAPGKEREWVASVLRGGYTWYADSVKGRFTISADNSKNTAYLQMNSLKPEDTAVYYCTRDGGFDPWGQGTLVTVSS
notes: VHH-Fc fusion in assay
As to B7, the Kd came to 5.34 nM, the koff turned out to be 0.00143 s⁻¹ and the on-rate (kon) stood at 290000 M⁻¹ s⁻¹.

B8: TIGIT-SC203 (Fc fusion)
VHH: EVQLVESGGGLVQPGGSLRLSCAASGFTFSPSWMGWFRQAPGKEREWVASVLRGGYTWYADSVKGRFTISADNSKNTAYLQMNSLKPEDTAVYYCARDRGGSDWGQGTLVTVSS
notes: VHH-Fc fusion in assay
Turning to B8, the Kd came out at 914 nM, the koff stood at 0.14 s⁻¹ and the kon came out at 153000 M⁻¹ s⁻¹.

B9: TIGIT-SC198 (Fc fusion)
VHH: EVQLVESGGGLVQPGGSLRLSCAASGFTFSPSWMGWFRQAPGKEREYVASVLRGGYTWYADSVKGRFTISADNSKNTAYLQMNSLKPEDTAVYYCASEGDPDYWGQGTLVTVSS
notes: VHH-Fc fusion in assay
As to B9, the Kd was 27.6 nM, the off-rate (koff) is 0.00285 s⁻¹ and the kon amounted to 103000 M⁻¹ s⁻¹.

B10: TIGIT-SC201 (Fc fusion)
VHH: EVQLVESGGGLVQPGGSLRLSCAASGFTFSPSWMGWFRQAPGKEREWVASVLRGGYTWYADSVKGRFTISADNSKNTAYLQMNSLKPEDTAVYYCTRDGGFDPWGQGTLVTVSS
notes: VHH-Fc fusion in assay
For B10, the Kd turned out to be 1590 nM, the koff came out at 0.000901 s⁻¹ and the kon turned out to be 567 M⁻¹ s⁻¹.

(Values after patent US20260184782A1 (TWIST BIOSCIENCE, published 2026).)
